Data reported in the Human Domainome abundance scans (Beltran et al. 2025).
± gives the uncertainty stated by the source.

Experiment: abundance fitness (aPCA) (normalised: wild type 0, dead -1); higher = more abundant; growth selection in yeast, the domain comes from the species named
Conditions: Homo sapiens

| Substance | abundance fitness |
| --- | --- |
| SAFB-like transcription modulator L34S, Q9NWH9 | -0.778 ± 0.038 |
| SAFB-like transcription modulator L34T, Q9NWH9 | -0.831 ± 0.067 |
| SAFB-like transcription modulator L34V, Q9NWH9 | -0.614 ± 0.068 |
| SAFB-like transcription modulator L34W, Q9NWH9 | -1.01 ± 0.057 |
| SAFB-like transcription modulator L39A, Q9NWH9 | -0.498 ± 0.069 |
| SAFB-like transcription modulator L39C, Q9NWH9 | -0.446 ± 0.079 |
| SAFB-like transcription modulator L39D, Q9NWH9 | -0.755 ± 0.075 |
| SAFB-like transcription modulator L39E, Q9NWH9 | -0.365 ± 0.054 |
| SAFB-like transcription modulator L39F, Q9NWH9 | -0.409 ± 0.077 |
| SAFB-like transcription modulator L39G, Q9NWH9 | -0.475 ± 0.045 |
| SAFB-like transcription modulator L39H, Q9NWH9 | -0.275 ± 0.081 |
| SAFB-like transcription modulator L39I, Q9NWH9 | -0.231 ± 0.074 |
| SAFB-like transcription modulator L39K, Q9NWH9 | -0.179 ± 0.046 |
| SAFB-like transcription modulator L39M, Q9NWH9 | 0.017 ± 0.047 |
| SAFB-like transcription modulator L39N, Q9NWH9 | -0.596 ± 0.12 |
| SAFB-like transcription modulator L39P, Q9NWH9 | -0.81 ± 0.067 |
| SAFB-like transcription modulator L39Q, Q9NWH9 | -0.499 ± 0.11 |
| SAFB-like transcription modulator L39R, Q9NWH9 | -0.296 ± 0.05 |
| SAFB-like transcription modulator L39T, Q9NWH9 | -0.631 ± 0.043 |
| SAFB-like transcription modulator L39V, Q9NWH9 | -0.356 ± 0.059 |
| SAFB-like transcription modulator L39W, Q9NWH9 | -0.591 ± 0.084 |

| Substance | abundance fitness |
| --- | --- |
| SAFB-like transcription modulator L39Y, Q9NWH9 | -0.305 ± 0.038 |
| SAFB-like transcription modulator L48A, Q9NWH9 | -0.432 ± 0.053 |
| SAFB-like transcription modulator L48C, Q9NWH9 | -0.51 ± 0.042 |
| SAFB-like transcription modulator L48D, Q9NWH9 | -0.274 ± 0.071 |
| SAFB-like transcription modulator L48E, Q9NWH9 | -0.478 ± 0.086 |
| SAFB-like transcription modulator L48F, Q9NWH9 | -0.886 ± 0.062 |
| SAFB-like transcription modulator L48G, Q9NWH9 | -0.472 ± 0.054 |
| SAFB-like transcription modulator L48H, Q9NWH9 | -0.52 ± 0.059 |
| SAFB-like transcription modulator L48I, Q9NWH9 | -0.513 ± 0.063 |
| SAFB-like transcription modulator L48K, Q9NWH9 | -0.371 ± 0.055 |
| SAFB-like transcription modulator L48M, Q9NWH9 | -0.075 ± 0.04 |
| SAFB-like transcription modulator L48N, Q9NWH9 | -0.489 ± 0.043 |
| SAFB-like transcription modulator L48P, Q9NWH9 | -0.489 ± 0.048 |
| SAFB-like transcription modulator L48R, Q9NWH9 | -0.537 ± 0.043 |
| SAFB-like transcription modulator L48S, Q9NWH9 | -0.585 ± 0.039 |
| SAFB-like transcription modulator L48T, Q9NWH9 | -0.538 ± 0.043 |
| SAFB-like transcription modulator L48V, Q9NWH9 | -0.607 ± 0.054 |
| SAFB-like transcription modulator L48W, Q9NWH9 | -0.613 ± 0.04 |
| SAFB-like transcription modulator L48Y, Q9NWH9 | -0.788 ± 0.043 |
| SAFB-like transcription modulator L52A, Q9NWH9 | -0.702 ± 0.04 |
